Results on seven molecules are retold here after article PMC1472246, “Structural Basis for a Munc13–1 Homodimer to Munc13–1/RIM Heterodimer Switch” (PLoS Biology, 2006).

The labels stand for the following.
B1: Munc13–1(3–128) (domain or fragment, rat, UniProt Q62768 3-128, looked up)
chain: LLCVGVKKAKFDGAQEKFNTYVTLKVQNVKSTTIAVRGSQPSWEQDFMFEINRLDLGLTVEVWNKGLIWDTMVGTVWIPLRTIRQSNEEGPGEWLTLDSQAIMADSEICGTKDPTFHRILLDAHFE
notes: Cloned into a modified pGEX-KG vector with a TEV protease cleavage site; Forms a homodimer (AUC, crystal structure); 15N-labelled for NMR; also called Munc13–1 C2A domain; Munc13–1 C2A-domain homodimer; source: bacteria, GST fusion, purified (glutathione-Sepharose, GST cleaved, size-exclusion or ion-exchange chromatography)
B2: Munc13–1(3–132) (domain or fragment, rat, UniProt Q62768 3-132, looked up)
chain: LLCVGVKKAKFDGAQEKFNTYVTLKVQNVKSTTIAVRGSQPSWEQDFMFEINRLDLGLTVEVWNKGLIWDTMVGTVWIPLRTIRQSNEEGPGEWLTLDSQAIMADSEICGTKDPTFHRILLDAHFELPLD
notes: Forms a homodimer (AUC); source: bacteria, GST fusion, purified (glutathione-Sepharose, GST cleaved, size-exclusion or ion-exchange chromatography)
B3: Munc13–1(3–209) (domain or fragment, rat, UniProt Q62768 3-209, looked up)
chain: LLCVGVKKAKFDGAQEKFNTYVTLKVQNVKSTTIAVRGSQPSWEQDFMFEINRLDLGLTVEVWNKGLIWDTMVGTVWIPLRTIRQSNEEGPGEWLTLDSQAIMADSEICGTKDPTFHRILLDAHFELPLDIPEEEARYWAKKLEQLNAMRDQDEYSFQDQQDKPLPVPSSQCCNWNYFGWGEQNDDPDSAVDDRDSDYRSETSNSIP
notes: Munc13-1, rat, residues 3-209; Forms a homodimer (AUC); 15N-labelled for NMR; source: bacteria, GST fusion, purified (glutathione-Sepharose, GST cleaved, size-exclusion or ion-exchange chromatography)
B4: RIM2α(82–142) (domain or fragment, rat, UniProt Q9JIS1-1 82-142, looked up)
chain: QQEQKGDAPTCGICHKTKFADGCGHNCSYCQTKFCARCGGRVSLRSNKVMWVCNLCRKQQE
notes: also called RIM2α ZF domain; RIM2α zinc-finger domain; source: bacteria, GST fusion, purified (glutathione-Sepharose, GST cleaved, size-exclusion or ion-exchange chromatography)
B5: Munc13–1(3–150) (domain or fragment, rat, UniProt Q62768 3-150, looked up)
chain: LLCVGVKKAKFDGAQEKFNTYVTLKVQNVKSTTIAVRGSQPSWEQDFMFEINRLDLGLTVEVWNKGLIWDTMVGTVWIPLRTIRQSNEEGPGEWLTLDSQAIMADSEICGTKDPTFHRILLDAHFELPLDIPEEEARYWAKKLEQLNA
notes: Munc13-1, rat, residues 3-150 (C2A domain and C-terminal extension); Forms a homodimer (AUC); 15N-labelled for NMR; source: bacteria, GST fusion, purified (glutathione-Sepharose, GST cleaved, size-exclusion or ion-exchange chromatography)

Series [1] addresses RIM2α ZF domain (Rattus norvegicus) (UniProt Q9JIS1). Particulars: cited from earlier work.
Series [2] shares this target. The following applies: cited from earlier work. The source holds these as a separate data set.
Series [3] concerns the molecule itself. Nature of the series: AUC; sedimentation equilibrium at 20,000-35,000 rpm, 4 °C; 30 mM Tris pH 8.0, 150 mM NaCl, 1 mM TCEP; loading 12.46-13.65 μM; monomer/dimer equilibrium model, dimer to monomers; the paper notes that constants below 50-100 nM are not quite accurate.
The series “Munc13–1(3–150)” deals with B5. The experiment in a line: SEC; gel filtration on Superdex S75 or S200; 30 mM Tris-HCl, 150 mM NaCl, 1 mM TCEP, pH 7.4; isolated proteins and their mixtures (Figures 1B, 4A). Particulars: both partners purified. Background: Size exclusion chromatography separates by hydrodynamic size, large species first.
In the series “Munc13–1(3–209)” the target is B3. The description is as above. The following applies: both partners purified.
Series [4] concerns the target Munc13–1(3–150)(K32E) (rat) (UniProt Q62768). Nature of the series: ITC; 200 μM Rim2α(82-142) injected into 10-20 μM Munc13-1(3-150)(K32E) in the cell; 20 °C; 30 mM Tris pH 7.4, 150 mM NaCl, 1 mM TCEP; single-site model; apparent Kd.

As a reminder, the stoichiometry N is the number of molecules, sites or subunits per partner or assembly.

Like-named read-outs stand apart in the source and are kept apart here.

On to Munc13-1 3-150 (from UniProt Q62768), for which the Kd in series [1] is 350 nM.

Turning to Munc13-1 3-209 (from UniProt Q62768), the Kd in series [2] is 70 nM.

For the molecule B1, in series [3], the Kd amounted to 310 nM and the “stoichiometry N” value was found to be 2.

As for B2, in series [3], the Kd is 80 nM and the “stoichiometry N” value was 2.

Take B3: in series [3], the Kd was 1.9 nM and the “stoichiometry N” value worked out at 2.

B4: in the series with Munc13–1(3–150), the binding result is recorded as “binds”. For the same molecule, the binding result with Munc13–1(3–209) is listed as “binds”. In series [4], the Kd was found to be 100 nM and the stoichiometry N amounted to 1.

Regarding B5, in series [3], the Kd amounted to 5.2 nM and the “stoichiometry N” value worked out at 2.
